Legend:
[1] = molecular target: DMRT1 (mouse) (UniProt Q9QZ59); experiment: competition; conditions: 40-fold excess unlabeled SELF; EMSA: 10 mM Tris-HCl pH 7.9, 100 mM KCl, 10% glycerol, 5 mM MgCl2, 1 mM spermidine, 0.075% Triton-X-100, 1 mM DTT, 1 ug BSA, 0.1 ug dI-dC, 75 ng plasmid DNA, 0.
[2] = molecular target: T1, DMRT5 (mouse) (UniProt A2A9A2); experiment: competition; conditions: 40-fold excess unlabeled SELF; EMSA: 10 mM Tris-HCl pH 7.9, 100 mM KCl, 10% glycerol, 5 mM MgCl2, 1 mM spermidine, 0.075% Triton-X-100, 1 mM DTT, 1 ug BSA, 0.1 ug dI-dC, 75 ng plasmid DNA, 0.
T1 sequence: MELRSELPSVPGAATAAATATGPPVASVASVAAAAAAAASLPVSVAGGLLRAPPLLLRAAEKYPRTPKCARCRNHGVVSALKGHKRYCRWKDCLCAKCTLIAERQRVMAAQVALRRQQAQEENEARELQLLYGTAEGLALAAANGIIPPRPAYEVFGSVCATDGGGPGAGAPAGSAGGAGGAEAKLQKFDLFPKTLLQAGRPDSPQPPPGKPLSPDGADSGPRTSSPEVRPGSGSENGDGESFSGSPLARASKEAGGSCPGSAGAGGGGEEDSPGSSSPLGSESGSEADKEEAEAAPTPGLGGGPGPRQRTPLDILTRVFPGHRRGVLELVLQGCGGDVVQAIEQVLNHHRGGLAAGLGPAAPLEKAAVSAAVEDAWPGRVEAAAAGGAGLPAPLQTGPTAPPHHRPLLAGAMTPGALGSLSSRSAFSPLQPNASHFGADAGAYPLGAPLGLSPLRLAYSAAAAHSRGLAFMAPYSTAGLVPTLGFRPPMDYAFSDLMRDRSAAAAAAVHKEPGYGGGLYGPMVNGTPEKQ

Chain of DMRT1 (mouse) (Q9QZ59 whole entry): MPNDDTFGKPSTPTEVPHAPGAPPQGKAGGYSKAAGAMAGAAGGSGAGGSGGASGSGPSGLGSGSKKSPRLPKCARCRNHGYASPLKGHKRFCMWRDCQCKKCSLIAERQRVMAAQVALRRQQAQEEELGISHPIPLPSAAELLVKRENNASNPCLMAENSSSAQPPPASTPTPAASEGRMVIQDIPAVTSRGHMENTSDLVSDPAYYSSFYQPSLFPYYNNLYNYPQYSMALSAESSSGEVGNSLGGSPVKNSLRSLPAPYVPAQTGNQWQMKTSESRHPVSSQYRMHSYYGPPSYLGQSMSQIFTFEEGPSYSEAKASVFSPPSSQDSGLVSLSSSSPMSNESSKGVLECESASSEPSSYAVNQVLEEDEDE

“TCGAGATTTGATACATTGTTGC / TCGAGCAACAATGTATCAAATC [DMRT1 consensus (1RE, general gel shift)]” showed a binding signal (relative to SELF) [1] of 1 and a binding signal (relative to SELF) [2] of 1.
